Publication PMC6250052 (Neurobiology of disease, 2018)
Like-named read-outs stand apart in the source and are kept apart here.

B1: purified hCypD protein (human Cyclophilin D) (enzyme)
chain: not shown
B2: glutathione S-transferase (GST)-tagged OSCP (human oligomycin sensitivity conferring protein) (natural protein, UniProt P48047 24-213, looked up)
chain: FAKLVRPPVQVYGIEGRYATALYSAASKQNKLEQVEKELLRVAQILKEPKVAASVLNPYVKRSIKVKSLNDITAKERFSPLTTNLINLLAENGRLSNTQGVVSAFSTMMSVHRGEVPCTVTSASPLEEATLSELKTVLKSFLSQGQVLKLEAKTDPSILGGMIVRIGEKYVDMSVKTKIQKLGRAMREIV

Experiments:
Assay in all cases: pull-down
[1] = target: B2
[2] = target: B2; remark: listed apart in the source
Aβ peptide (ApexBio) [3] = target: Aβ peptide (ApexBio)
Aβ peptide (ApexBio) [4] = target: Aβ peptide (ApexBio); remark: listed apart in the source

B1 was tested, and the Kd [1] was 100 ± 15 nM and the Kd [2] was 60 ± 1 nM.

For B2, the Kd (Aβ peptide (ApexBio) [3]) was 510 ± 71 nM and the Kd (Aβ peptide (ApexBio) [4]) was 88 ± 43 nM.
